Measurements published in US11583588B2, “Modular self assembly disassembly (SADA) technologies” (MEMORIAL SLOAN KETTERING CANCER CENTER, priority 2017, dated 2023).

Assays:
[1] = system: TIB214, an IL15 sensitive cell line; assay: SADA-Cytokine dependent proliferation; type: cell-based
Source text: (§1) […] to FIG. 11D depict in vitro activity of P53-Cytokine, P63-Cytokine and P73-Cytokine SADA-Cytokines. FIG. 11A depicts a graph showing SADA-Cytokine dependent proliferation. The dose dependent proliferative response of TIB214 cells to each of P53-Cytokine (circles), P63-Cytokine (squares) and P73-Cytokine (triangles) is shown. FIG. 11B depicts a graph showing NK Cell cytotoxicity improvement from SADA-Cytokine stimulation. Bar graph summarizes peak cytotoxicity improvement from exposure of human NK cells to each SADA-Cytokine for 3 days. Cytotoxicity was assessed over a 4 hr period using a GD2(+) cell line that is sensitive to NK mediated killing and an anti-GD2 IgG (Ahmed, M. et al. (2015) OncoImmunology). Control (black bar), P53-Cytokine (medium gray bar), P63-Cytokine (dark gray bar) and P73-Cytokine (light gray bar). FIG. 11C depicts a graph showing T Cell cytotoxicity improvement from SADA-Cytokine stimulation. Bar graph summarizes peak cytotoxicity improvement from exposure of human T cells to each SADA-Cytokine for 3 days. Cytotoxicity was assessed over a 4 hr period using a GD2(+) cell line and a T-cell engaging anti-GD2 IgG-scFv bispecific (Xu, H. et al. (2015) Cancer immunology research). Control (black bar), P53-Cytokine (medium gray bar), P63-Cytokine (dark gray bar) and P73-Cytokine (light gray bar). FIG. 11D depicts a graph showing tumor growth in DKO mice with GD2(+) tumors implanted subcutaneously. Each mouse was treated with PBMCs (gray triangles) and a low dose of an anti-tumor IgG-scFv (Xu, H. et al. (2015) Cancer immunology research) and additional cytokines. Untreated tumors grew out very quickly (black lines). Tumors treated with the IgG-scFv and an Fc-Cytokine (Liu et al. 2016 JBC, http://www.jbc.org/content/291/46/23869) with a mutation to improve binding (light gray line) shrunk tumors slower than mice treated with the IgG-scFv and SADA-Cytokine (dark gray line).
(§2) This example documents the in vitro activity of exemplary SADA-cytokine multimers. […] Additionally, each complex could prime effector immune cells to kill more strongly. […]

human T cells = assay: T cell cytotoxicity improvement from SADA-Cytokine stimulation; type: cell-based; settings: incubated three days; cytotoxicity over a 4 hr period, GD2(+) cell line
Source text: as §1, §2

Human NK cells = assay: NK cell cytotoxicity improvement from SADA-Cytokine stimulation; type: cell-based; settings: 1 nM for three days; cytotoxicity over a 4 hr period
Source text: as §1, §2

tumors = type: in vivo, mice
Experimental: FIG. 8A and FIG. 8B depict tumor responses after treatment with a SADA-BiDE construct P53-BIDE(NOHIS) in vivo. FIG. 8A depicts a graph showing the change in tumor volume after administration of 1 (circles) or 4 (squares) doses of P53-BiDE. As a reference other mice were also treated with IgG-BiDE (Cheal, S. M. et al. (2014) Mol Cancer Ther) and clearing agent (triangles). FIG. 8B provides images of an exemplary mouse treated with a single dose of P53-BIDE(NOHIS) from the experimental data shown in FIG. 8A. Images are shown of the mouse on days 1, 8 and 15 with a box around the site of the tumor.
In mice with significant tumor burden (>500 mm^3 tumor volumes) a single 250 μg (1.25 nmol) dose of P53-BIDE(NOHIS) was administered followed 24 hour later by administration of 2mCi of ^177Lu-Bn-DOTA.

[2] = Blood and tumor activity after P53-BiDE(noHIS) and 177Lu-Bn-DOTA administration (FIG. 6A, 6D, 6E); type: in vivo, mice; settings: mouse, in vivo
Experimental: FIG. 6A to FIG. 6E depict pharmacokinetics of exemplary SADA-BiDE constructs in vivo. FIG. 6A depicts activity over time after P53-BiDE(noHIS) and Bn-DOTA administration. Each line represents one group, with three mice per group. Triangles denote a group that received P53-BiDE(noHIS) followed by clearing agent (CA) 72 hours later. Squares denote a group that received P53-BiDE(noHIS) without any clearing agent before ^177Lu-Bn-DOTA administration. Circles denote a group that only received ^177Lu-Bn-DOTA but not any SADA-BiDE. Dashed lines correspond to the measured blood activity, while solid lines correspond to the activity measured in the tumor. […] FIG. 6B depicts blood activity of radiolabeled 131I-SADA-BiDE in tumor-free mice. Activity measurements were normalized to the initial measurement for each group. Each line represents one group, with 4-5 mice per group. (+) symbols denote P53-BiDE, (X) symbols denote P63-BiDE and circles denote P73-BiDE. FIG. 6C depicts blood activity in tumor bearing mice treated with either IgG-BiDE (Cheal, S. M. et al. (2014) Mol Cancer Ther) or SADA-BiDE and then injected with ^177Lu-Bn-DOTA. Each line represents one group, with 3-5 mice per group. Circles denote a group that received IgG-BiDE (Cheal, S. M. et al. (2014) Mol Cancer Ther) followed by clearing agent 48 hrs later. Squares denote a group that received P53-BiDE. Diamonds denote a group that received P63-BiDE. Hexagons denote a group that received P73-BiDE. No SADA-BiDE treated mice received any clearing agent. A representative anti-tumor IgG and ^177Lu-Bn-DOTA alone clearance curves were added as a reference. (+) symbols with a dotted line denote the ^124I-labeled anti-GD2 IgG, and (x) symbols with a dotted line denote ^177Lu-Bn-DOTA alone. […]
Importantly, even though, as described in the previous examples, P53-BIDE(NOHIS), P53-BiDE, P63-BiDE and P73-BiDE is rapidly cleared from the serum, total tumor uptake of was not affected. With both 24 hours and 72 hours between P53-BIDE(NOHIS) and ^177Lu-Bn-DOTA injections, significant activity (˜15% ID/g) was measured at the tumor site (FIG. 6D) […]

Molecule | proliferation of TIB214 relative to untreated control cells [1] | IgG-scFv dependent killing of tumor cells by T cells (human T cells) | NK cell cytotoxic response against a GD2(+) neuroblastoma cell line (Human NK cells) | clinical or histologic toxicity (tumors; mouse, in vivo) | tumor response (tumors; tumor volumes >500 mm^3, single 250 μg (1.25 nmol) dose, 2mCi 177Lu-Bn-DOTA 24 hour later, no CA) | activity measured at the tumor site [2] [% ID/g] | clearance from blood without clearing agent [2] | retention at the target site [2]
P63-Cytokine: IL15Rα, huP63-tet, IgG3 spacer; associates non-covalently with soluble IL15; SEQ ID NO: 59 (protein) ITCPPPMSVEHADIWVKSYSLYSRERYICNSGFKRKAGTSSLTECVLNKATNVAHWTTPSLKCIRTPLGDTTHTSGRSPDDELLYLPVRGRETYEMLLKIKESLELMQYLPQHTIETYRQQQQQQHQHLLQKQGGSGGAPHHHHHH | robust proliferation | strongly increased IgG-scFv dependent killing | increased antibody-independent cytotoxic response |  |  |  |  | 
P53-Cytokine: IL15Rα, huP53-tet, IgG3 spacer; associates non-covalently with soluble IL15; SEQ ID NO: 57 (protein) ITCPPPMSVEHADIWVKSYSLYSRERYICNSGFKRKAGTSSLTECVLNKATNVAHWTTPSLKCIRTPLGDTTHTSGKPLDGEYFTLQIRGRERFEMFRELNEALELKDAQAGKEPGGSGGAPHHHHHH | robust proliferation | strongly increased IgG-scFv dependent killing | increased antibody-independent cytotoxic response |  |  |  |  | 
P53-BiDE(noHIS): hu3F8-scFv, huC825-scFv, huP53-tet, GS linker, IgG3 spacer, lacks terminal HIS tag; SEQ ID NO: 17 (protein) EIVMTQTPATLSVSAGERVTITCKASQSVSNDVTWYQQKPGQAPRLLIYSASNRYSGVPARFSGSGYGTEFTFTISSVQSEDFAVYFCQQDYSSFGCGTKLEIKRGGGGSGGGGSGGGGSQVQLVESGPGVVQPGRSLRISCAVSGFSVTNYGVHWVRQPPGKCLEWLGVIWAGGITNYNSAFMSRLTISKDNSKNTVYLQMNSLRAEDTAMYYCASRGGHYGYALDYWGQGTLVTVSSGGGGSGGGGSGGGGSGGGGSHVQLVESGGGLVQPGGSLRLSCAASGFSLTDYGVHWVRQAPGKGLEWLGVIWSGGGTAYNTALISRFTISRDNSKNTLYLQMNSLRAEDTAVYYCARRGSYPYNYFDAWGCGTLVTVSSGGGGSGGGGSGGGGSQAVVTQEPSLTVSPGGTVTLTCGSSTGAVTASNYANWVQQKPGQCPRGLIGGHNNRPPGVPARFSGSLLGGKAALTLLGAQPEDEAEYYCALWYSDHWVIGGGTKLTVLGTPLGDTTHTSGKPLDGEYFTLQIRGRERFEMFRELNEALELKDAQAGKEPGGSGGA |  |  |  | did not induce any clinical or histologic toxicity | completely ablate tumors in all four mice treated | ~15 | almost completely cleared | stably retained at the target site
P73-Cytokine: IL15Rα, huP73-tet, IgG3 spacer; associates non-covalently with soluble IL15; SEQ ID NO: 61 (protein) ITCPPPMSVEHADIWVKSYSLYSRERYICNSGFKRKAGTSSLTECVLNKATNVAHWTTPSLKCIRTPLGDTTHTSGRHGDEDTYYLQVRGRENFEILMKLKESLELMELVPQPLVDSYRQQQQLLQRPGGSGGAPHHHHHH | robust proliferation | strongly increased IgG-scFv dependent killing | increased antibody-independent cytotoxic response |  |  |  |  | 
